These results are taken from patent publication US20240424107.

In this series the test system is IgG Fc dimer protein, P01857-1. To be noted: printed ggAGG[2'-F-rU]Gc[2'-F-rU]ccgaaaGgaa[2'-F-rC][2'-F-rU]cc (lowercase DNA, uppercase RNA); about 10 oxanine nucleotides added at 3' end; at least one aptamer per Fc dimer, one or two observed; HEPES pH 8.4, Mg, K, 37 C, 1 day.

As for “GGAGGTGCTCCGAAAGGAACTCC [Fc RNA aptamer Apt8-2-oxanine]”, the activity (% conjugation) is > 98.
